Source: the nanobody polyreactivity screen of Harvey et al. (2022)

Experiment: yeast display, Sf9 membrane polyspecificity reagent, FACS + sequencing; frameworks hold sequencing errors
Method in brief: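 Sorting gates, low and high (top ~1%), were placed on anti-HA fluorescence to track expression and on streptavidin fluorescence to track reagent binding. A clone's polyreactivity label is taken from the gate it came out of. The reagent was 10% biotinylated, detergent-solubilized Sf9 membrane, applied for 1 hour at 4 °C to galactose-induced yeast display cells.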

| Sequence | polyreactivity (PSR sort gate) |
| --- | --- |
| QVQLVESGGGLVQAGGSLRLSCAASGSIFIYYAMGWYRQAPGKERELVAAISFSGARTYYADSVKGRFTISRDNAKNTVFLQMNSLKPEDTAVYYCNVEIGTGDYDYWGQGTQVTVSS | low polyreactivity |
| QVQLVESGGGLVQAGGSLRLSCAASGSIFKANAMGWYRQAPGKESELVATITSSGTRTYYADSVKGRFTISRDNAKNTVYLQMNSLKPEDTAVYYCNARAYPYQRGRYGYWGQGTQVTVSS | high polyreactivity |
| QVQLVESGGGLVQAGGSLRLSCAASGSIFKEYAMGWYRQAPGKERELVATISWSGGSTYYADSVKGRFTISRDNAKNTVYLQMNSLKPEDTAVYYCNKRTPWWYVVRYDYWGQGTQVTVSS | high polyreactivity |
| QVQLVESGGGLVQAGGSLRLSCAASGSIFKGNAMGWYRQAPGTERELVASITRSVARTYYADSVKGRFTISRDNAKNTVFLLMNSLKAEDTAVYYCAADWYQWGGRYYAPRYYYWGQGTQVTVSS | high polyreactivity |
| QVQLVESGGGLVQAGGSLRLSCAASGSIFKGYAMGWSRQAPGKERELVASITSSGGSTYYADSVKGRFTISRDNAKNTVYLQMNCLKPEDTAVYYCATDHDSVRVLVSSTSDYDYWGQGTQVTVSS | low polyreactivity |
| QVQLVESGGGLVQAGGSLRLSCAASGSIFKPYAMGWYRQAPGKERELVAAINRGGTSTYYADSVKGRFTISRDNAKNTVYLQMISLKPEDTAVYYCAAPNRYSVPMYYWGQGTQVTVSS | low polyreactivity |
| QVQLVESGGGLVQAGGSLRLSCAASGSIFKQYAMGWYRQAPGKERELVARITGSGGSTYYADSVKGRFTISRDNAKNTVYLQLNSLKPEDTAVYYCANKRYARSSGGYDYWGQGTQVTVSS | low polyreactivity |
| QVQLVESGGGLVQAGGSLRLSCAASGSIFKQYAMGWYRQAPGKERELVARITGSGGSTYYADSVKGRFTISRDNAKNTVYLQMNSLKPEDTAVYYCATKRYARSSGGYDYWGQGTQVTVSS | low polyreactivity |
| QVQLVESGGGLVQAGGSLRLSCAASGSIFKRYAMGWYRHAPGKERELVAAISYSGGSTNYADSVKGRFTISRDNAKNTVYLQMNSLKPEDTAVYYCAKRSTSRGYDYWGQGTQVTVSS | high polyreactivity |
| QVQLVESGGGLVQAGGSLRLSCAASGSIFKRYAMGWYRQAPGKERELVASISSRGSSTNYADSVKGRFTISRDNAKNTVYLQMNSLKPEDTAVYYCAAEVYRGKYWSTYRGGDYWGQGTQVTVSS | high polyreactivity |
| QVQLVESGGGLVQAGGSLRLSCAASGSIFKTNAMGWYRQAPGKERELVAAITGSGGSTYYADSVKGRFTISRDNAKNTVYLQMNSLKPEDTAVYYCAKRSYRPILRWSYDYWGQGTQVTVSS | low polyreactivity |
| QVQLVESGGGLVQAGGSLRLSCAASGSIFKTYAMGWNRQAPGKEREFVARITSSGGRTYYADSVKGRFTISRDNAKNTVYLQMNSLKPEDTAVYYCAKPYPRGYTTYSYDYWGQGTQVTVSS | high polyreactivity |
| QVQLVESGGGLVQAGGSLRLSCAASGSIFKVYAMGWYRQAPGKEREIVAAITSSDSNTNYADSVKGRFTISRDNEKNTVYLQMNSLKPEDTAVYYCNARIYTRRYVPHYGFNYWGQGTQVTVSS | low polyreactivity |
| QVQLVESGGGLVQAGGSLRLSCAASGSIFKVYAMGWYRQAPGKERELVATISGSGGSTYYADSVKGRFTISRDNAKKTVYLQMNSLKPEDTAVYYCAADAGYAFAVGGGWVEALYDYWGQGTQVTVSS | low polyreactivity |
| QVQLVESGGGLVQAGGSLRLSCAASGSIFKWNDMGWYRQSPGKERELVAAITWSGGRTYYADSVKGRFTISRDNAKNTVYLQMNSLKPEDTAVYYCAATQYRSDGWRYDYWGQGTQVTVSS | high polyreactivity |
| QVQLVESGGGLVQAGGSLRLSCAASGSIFKYNAMGWYRQAPGKEREFVAAISSSSGNTYYADSVKGRFTISRDNAKNSVYIQMNSLKPEDTAVYYCAARTFAYRRGWFGYWGQGTQVTVSS | high polyreactivity |
| QVQLVESGGGLVQAGGSLRLSCAASGSIFKYNAMGWYRQAPGKERELVAAITYSGGSTYYADSVKGRFTISRDNAKNTVYLQMNSLKPEDTAVYYCNAYRRFSAFDYWGQGTQVTVSS | high polyreactivity |
| QVQLVESGGGLVQAGGSLRLSCAASGSIFKYNAMGWYRQAPGKERELVATITSSGSTTYYADSVKGRFTISRDNAKYTVYLQMNSLKPEDTAVYYCNARYSYRRDYWGQGTEVTVSS | high polyreactivity |
| QVQLVESGGGLVQAGGSLRLSCAASGSIFKYNTMGWYIQAPGKERELVATISGGGRTYYADSVKGRFTISRDNAKNTVYLQMNSLKPEDTAVYYCAARKRGTFTYDYWGQGTQVTVSS | high polyreactivity |
| QVQLVESGGGLVQAGGSLRLSCAASGSIFKYNTMGWYRQAPGKERELVAAISSGGRTYYADSVKGRFTISRDNAKNSVYLQMNSLKPEDTAVYYCAARWSFFKTTHRNNYWGQGTQVTVSS | high polyreactivity |
| QVQLVESGGGLVQAGGSLRLSCAASGSIFKYYAMGWYRQAPGKERELVAAIDWSGGNTYADSVKGRFTISRDNAKNTVYLQMNSLKPEDTAVYYCAADAFAVYRITSYNGSDSWGQGTQVTVSS | high polyreactivity |

| Sequence | polyreactivity (PSR sort gate) |
| --- | --- |
| QVQLVESGGGLVQAGGSLRLSCAASGSIFKYYAMGWYRQAPGKERELVAAISFSGGSTYYADSVKGRFTISRDNAKNTVYLQMNSLKPEDTAVYYCAVLGVWGYGYWGQGTQVTVSS | high polyreactivity |
| QVQLVESGGGLVQAGGSLRLSCAASGSIFKYYAMGWYRQAPGKERELVAAISSGGRTYYADSVKGRFTISRDNAKNTVYLQMNSLKPEDTAVYYCNRGTVNSWARGYWGQGTQVTVSS | high polyreactivity |
| QVQLVESGGGLVQAGGSLRLSCAASGSIFKYYAMGWYRQAPGKERELVAAISYSGGRTYYADSVKGRFTISRDNAKNTVYLQMNSLKPEDTAVYYCNAELYPWPGVVRYNYWGQGTQVTVSS | high polyreactivity |
| QVQLVESGGGLVQAGGSLRLSCAASGSIFKYYAMGWYRQAPGKERELVAAITSGGSTSYADSVKGRFTISRDNAKNTVYLQMNSLKPEDTAVYYCAASGNSYRLRYWWSELDYWGQGTQVTVSS | high polyreactivity |
| QVQLVESGGGLVQAGGSLRLSCAASGSIFKYYAMGWYRQAPGKERELVAAITWSGGRTNYADSVKGRFTISRDNAKNTVYLQMNSLKPEDTAVYYCNKAYPGLERWYRGLYYWGQGTQVTVSS | high polyreactivity |
| QVQLVESGGGLVQAGGSLRLSCAASGSIFKYYAMGWYRQAPGKERELVASITSGGSTNYADSVKGRFTISRDNAKNTVYLQMNSLKPEDTAVYYCAADGVRVPRREYDYWGQGTQVTVSS | low polyreactivity |
| QVQLVESGGGLVQAGGSLRLSCAASGSIFKYYVMGWYRQAPGKERELVAAISSGGGSTYYADSVKGRFTISRDNAKNTVYLQMNSLKPEDTAVYYCNKKYRSRWQGPFDYWGQGTQVTVSS | high polyreactivity |
| QVQLVESGGGLVQAGGSLRLSCAASGSIFLAKAMGWYRQAPGKERELVAAINYADSVKGRFTISRDNAKNTVYLQMNSLKPEDTAVYYCYSKYDYWGQGTQVTVSS | low polyreactivity |
| QVQLVESGGGLVQAGGSLRLSCAASGSIFLANAMGWYRQAPGKERELVAAINYADSVKGRFTISRDNAKNTVYLQMNSLKPEDTAVYYCYSKYDYWGQGTQVTVSS | low polyreactivity |
| QVQLVESGGGLVQAGGSLRLSCAASGSIFLAYAMGWYRQAPGKERELVATISSGGSTNYADSVKGRFTISRDNAKNTVYLQMNSLKPEDTAVYYCIADYSIPGYYWPYDYWGQGTQVTVSS | low polyreactivity |
| QVQLVESGGGLVQAGGSLRLSCAASGSIFLDYAMGWYRQAPGKERELVAGITISGGSTYYADSVKGRFTISRDNAKNTVYLQMNRLKPEDTAVYYCSKVAPRSSSSQEYYYWGQGTQVTVSS | low polyreactivity |
| QVQLVESGGGLVQAGGSLRLSCAASGSIFLDYAMGWYRQAPGKERELVAGITISGGSTYYAVSVKGRFTISRDNAKNTVYLQMYSLNREDTAVYYCAKVAPRSSSSQEYYYWGQGTQVTVSS | low polyreactivity |
| QVQLVESGGGLVQAGGSLRLSCAASGSIFLFYALGWSRQAPGKERELVATINWSGCTTYYADSVKGRFTISRDNAKNTVYFQMNSLKPEDNAFYYCAAYSVYGRYGRTFYYWGQGTQVTVSS | high polyreactivity |
| QVQLVESGGGLVQAGGSLRLSCAASGSIFLGNAMGWYRQAPGKERELVAAISSITGRTYYAESVKGRFTISRDNAKNTVYLQMNSLKPEDTAVYYCNKVKRSFIVKTDDYWGQGTQVTVSS | high polyreactivity |
| QVQLVESGGGLVQAGGSLRLSCAASGSIFLHNAMGWYRQAPGKERELVAAISGTGGRTYYADSVKGRFTISRDNAKNTVYLQMNSLKPEDTAVYYCAKTLRDPYRYDYWGQGTQVTVSS | high polyreactivity |
| QVQLVESGGGLVQAGGSLRLSCAASGSIFLIYAMGGYRPAPGKERELVAGINWSGSRTYYADSVKGRFTISRDNAKNTVYLQMNSLKPEDTAVYYCAARVRRPLYSAYDSWGQGTQVTVSS | low polyreactivity |
| QVQLVESGGGLVQAGGSLRLSCAASGSIFLKYAMGWYRQAPGKERELVATISRGGSTNYADSVKGRFTISRDNAKNTVYLQMNSLKPEDTAVYYCAAKYGRPYGTYGYKSLLVGDMYYWGQGTQVTVSS | high polyreactivity |
| QVQLVESGGGLVQAGGSLRLSCAASGSIFLLYAMGWYRQAPGKERELVAAISLSTGNTYYADSVKGRFTISRDNAKNTVYLQMNSLKPEDTAVYYCAAEDYWSAYYWGQGTQVTVSS | high polyreactivity |
| QVQLVESGGGLVQAGGSLRLSCAASGSIFLPNAMGWYRQAPGKERELVARITSTGSTNYADSVKGRFTISRDNAKNTVYLQMNSLKPEDTAVYYCAADYYPFYVKREQAYPDIPYDSWGQGTQVTVSS | low polyreactivity |
| QVQLVESGGGLVQAGGSLRLSCAASGSIFLPYAMGWYRQAPGKEREFVAAIRWSTGRTFYADSVKGRVTISRDNAKNTVYLQMNSLKPEDTAVYYCAAKYYDSWYTYRYDYWGQGTQVTVSS | high polyreactivity |
